The target in experiment [1] is POB1 phospho-peptide 347KTHSRASpSLDLNKVF361 (human). The experiment is described as follows: peptide or protein array; SPOT peptides on a cellulose membrane; GST fusion proteins (10 micrograms/ml) in PBS/BSA 5%; anti-GST antibody, peroxidase labeled secondary antibody, chemiluminescence in arbitrary units.
Experiment [2] deals with POB1 fifteenmer peptide 338-352 with Pro343 replaced by alanine (human). The description is as above.
Experiment [3] concerns the target POB1 fifteenmer peptide 338-352 with Pro345 replaced by alanine (human). The description is as above.
Experiment [4] concerns the target T1, GST-SH3 of Amphiphysin II (UniProt O00499 520-593).
T1 construct: Amphiphysin II, SH3 domain; cloned into the SalI and BglII sites of pYEX (modified pGEX-2TK); also called AmphIISH3; GST-Amphiphysin II SH3; source: expressed in bacteria; on glutathione-Sepharose 4B beads (pull-down) or purified (peptide arrays)
T1 sequence (looked up): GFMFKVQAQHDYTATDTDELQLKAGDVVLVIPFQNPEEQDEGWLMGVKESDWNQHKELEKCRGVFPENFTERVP
The experiment can be described thus: pull-down; GST or GST fusion proteins (100 μg) adsorbed to glutathione-sepharose 4B beads, two hours at 4°C with 1 mg of HEK293 cellular extract in JS lysis buffer (50 mM Hepes, 150 mM NaCl, 1% Triton-X100); washed three times in ice-cold PBS; Western blot.

Experiment [5] concerns the target GST-SH3 carboxy-terminal of Grb2. Described as above.
Another experiment concerns the target 14-3-3 sigma (UniProt P31947). The experiment is described as follows: SPOT peptide array, GST-14-3-3 sigma overlay.
The target of experiment [6] is T1, GST-SH3 of Amphiphysin II. The experiment is described as follows: peptide or protein array; SPOT peptides on a cellulose membrane; GST fusion proteins (10 micrograms/ml) in PBS/BSA 5%; anti-GST antibody, peroxidase labeled secondary antibody, chemiluminescence in arbitrary units. Particulars: both partners purified.
Experiment [7] deals with POB1 fifteenmer peptide 338-352 with proline 339 replaced by alanine (human). The experiment is described as above.

Consider “GST-14-3-3 sigma (from UniProt P31947 1-248) (natural protein)”, for which the signal intensity (arbitrary units (a.u.)) in experiment [1] was 8500.
Take “GST-SH3 carboxy-terminal of Grb2 (domain or fragment)”: the percent of the binding to the unmutated peptide in experiment [2] and in experiment [3] was 30% in each case.
In the case of “Myc-tagged POB1 (full length) (natural protein)”, the percent of the input bound in experiment [4] was determined as 25%; in experiment [5], 4%.
As to “POB1/REPS2 15-mer centred on Ser322 (from UniProt Q8NFH8) pS322 peptide (No. 196)”, the “other: spot intensity” value with 14-3-3 sigma (reference: unphosphorylated peptide (No. 232), sites S322) is “none in both; reference 1400”.
Take “POB1/REPS2 347-361 (from UniProt Q8NFH8) pS354 peptide”: in the experiment with 14-3-3 sigma (reference: unphosphorylated peptide (No. 238), sites S354), the “other: spot intensity” value is given as “gained; reference 991”.

B1: POB1 fifteenmer peptide 338PPTPPPRPQKTHSRA352 (peptide)
peptide: PPTPPPRPQKTHSRA
notes: numbers count on: isoform 2, Q8NFH8-2; source: SPOT synthesis on a cellulose membrane
For B1, the binding result in experiment [6] was “binds”.

B2: GST-SH3 of Amphiphysin II (domain or fragment)
chain: GFMFKVQAQHDYTATDTDELQLKAGDVVLVIPFQNPEEQDEGWLMGVKESDWNQHKELEKCRGVFPENFTERVP
In experiment [7], B2 came in with a percent of the binding to the unmutated peptide of 31%.

The values are drawn from article PMC2494995, “The central proline rich region of POB1/REPS2 plays a regulatory role in epidermal growth factor receptor endocytosis by binding to 14-3-3 and SH3 domain-containing proteins” (BMC Biochemistry, 2008).
